This is an account of results in patent US20110016537A1, “Cellular model of tauopathies for lead identification and drug discovery” (Georg-August-Universitat Gottingen Stifung offentl, priority 2003, published 2011).

The target of assay [1] is wild-type human tau 441 with GFP fused at the N-terminal (human) (UniProt P10636). Kind of assay: immunocytochemistry, SHSY5Y cells 36 h after transfection.
The target in assay [2] is tau mutant M123 (triple mutant, M1+M2+M3) with GFP fused at the N-terminal (human) (UniProt P10636). Described as above.
Assay [3] shares this target. Kind of assay: immunocytochemistry, transfected SHSY5Y cells.

tau mutant M123 (triple mutant, M1+M2+M3) with GFP fused at the N-terminal (human), sequence (P10636 other isoform, or with tags, fused parts or gaps mutant): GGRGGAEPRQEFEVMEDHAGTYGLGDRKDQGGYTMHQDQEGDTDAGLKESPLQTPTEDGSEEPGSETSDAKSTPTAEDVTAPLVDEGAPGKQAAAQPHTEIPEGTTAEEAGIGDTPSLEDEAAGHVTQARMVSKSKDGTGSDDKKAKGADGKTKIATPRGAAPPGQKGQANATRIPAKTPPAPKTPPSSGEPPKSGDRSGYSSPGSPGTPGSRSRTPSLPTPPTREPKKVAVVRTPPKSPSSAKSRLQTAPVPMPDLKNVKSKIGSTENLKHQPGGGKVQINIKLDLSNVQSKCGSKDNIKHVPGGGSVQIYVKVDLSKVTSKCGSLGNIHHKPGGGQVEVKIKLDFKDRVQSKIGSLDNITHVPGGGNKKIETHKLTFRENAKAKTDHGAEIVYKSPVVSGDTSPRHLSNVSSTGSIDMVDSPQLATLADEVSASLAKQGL
wild-type human tau 441 with GFP fused at the N-terminal (human), sequence (P10636 other isoform, or with tags, fused parts or gaps): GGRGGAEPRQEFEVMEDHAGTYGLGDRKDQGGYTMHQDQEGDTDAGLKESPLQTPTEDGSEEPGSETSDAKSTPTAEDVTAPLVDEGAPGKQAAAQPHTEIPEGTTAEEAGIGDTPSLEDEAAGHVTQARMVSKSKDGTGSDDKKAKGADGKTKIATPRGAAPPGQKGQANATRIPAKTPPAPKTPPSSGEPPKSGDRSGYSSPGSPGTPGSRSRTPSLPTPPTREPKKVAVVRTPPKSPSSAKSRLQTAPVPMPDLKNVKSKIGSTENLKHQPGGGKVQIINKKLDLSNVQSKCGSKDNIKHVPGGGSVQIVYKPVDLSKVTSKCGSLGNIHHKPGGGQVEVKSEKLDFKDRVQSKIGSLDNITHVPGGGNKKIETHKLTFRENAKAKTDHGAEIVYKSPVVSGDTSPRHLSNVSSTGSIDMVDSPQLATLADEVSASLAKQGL

Turning to AT8 antibody (S202/T205 specific), the percentage of transfected cells with AT8 immunolabeling in assay [1] is 9.17%; in assay [2], 83.2%.
AT180 antibody (phosphoepitope T231) yielded a percentage of transfected cells AT180 immunopositive in assay [3] of 22.1%.
